Assay results taken from IntAct's records for PubMed 21822214.

B1: B-cell linker protein (Homo sapiens), Q8WV28 (parent)
chain: MDKLNKITVPASQKLRQLQKMVHDIKNNEGGIMNKIKKLKVKAPPSVPRRDYASESPADEEEQWSDDFDSDYENPDEHSDSEMYVMPAEENADDSYEPPPVEQETRPVHPALPFARGEYIDNRSSQRHSPPFSKTLPSKPSWPSEKARLTSTLPALTALQKPQVPPKPKGLLEDEADYVVPVEDNDENYIHPTESSSPPPEKAPMVNRSTKPNSSTPASPPGTASGRNSGAWETKSPPPAAPSPLPRAGKKPTTPLKTTPVASQQNASSVCEEKPIPAERHRGSSHRQEAVQSPVFPPAQKQIHQKPIPLPRFTEGGNPTVDGPLPSFSSNSTISEQEAGVLCKPWYAGACDRKSAEEALHRSNKDGSFLIRKSSGHDSKQPYTLVVFFNKRVYNIPVRFIEATKQYALGRKKNGEEYFGSVAEIIRNHQHSPLVLIDSQNNTKDSTRLKYAVKVS

Variants of: B1
Settings: with cd2ap_human CD2AP

| effect of a mutation on the interaction | Variant |
| --- | --- |
| disrupting interaction | R49A;R247A;R312A |
